Values belong to the molecule of their own block, whether it stands above or below them. Square brackets hold non-standard residues; d marks the D form. Ends that are not written are not given here. pS = N[C@@H](COP(=O)(O)O)C(=O)O
What was measured:
[1] = target: His-SUMO-tagged MLL3 SET domain (UniProt Q8NEZ4); test: pull-down
Ash2L SPRY domain [2] = target: Ash2L SPRY domain (UniProt Q9UBL3); test: isothermal titration calorimetry; conditions: reference: unmodified RbBP5 344-357 peptide; sites S350
Ash2L SPRY domain [3] = test: ITC

Sequence of RbBP5 344-357 (Q15291 whole entry, looked up, change not shown, the tested form may be a part): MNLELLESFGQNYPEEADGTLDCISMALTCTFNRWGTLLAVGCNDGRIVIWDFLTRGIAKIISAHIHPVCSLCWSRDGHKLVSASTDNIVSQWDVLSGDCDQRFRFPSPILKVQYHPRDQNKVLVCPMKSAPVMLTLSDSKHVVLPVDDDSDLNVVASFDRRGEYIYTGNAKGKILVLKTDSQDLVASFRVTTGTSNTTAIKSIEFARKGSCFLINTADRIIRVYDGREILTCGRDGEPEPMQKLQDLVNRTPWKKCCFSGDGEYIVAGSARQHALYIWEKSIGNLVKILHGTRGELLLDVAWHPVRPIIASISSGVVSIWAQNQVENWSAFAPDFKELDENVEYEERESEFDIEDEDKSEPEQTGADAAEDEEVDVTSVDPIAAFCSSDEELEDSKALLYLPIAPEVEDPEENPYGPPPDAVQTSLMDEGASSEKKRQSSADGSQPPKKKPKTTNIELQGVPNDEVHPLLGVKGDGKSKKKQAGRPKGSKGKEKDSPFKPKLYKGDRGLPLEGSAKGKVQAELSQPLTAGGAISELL
Sequence of UniProt Q8NEZ4 (Q8NEZ4 4771-4887): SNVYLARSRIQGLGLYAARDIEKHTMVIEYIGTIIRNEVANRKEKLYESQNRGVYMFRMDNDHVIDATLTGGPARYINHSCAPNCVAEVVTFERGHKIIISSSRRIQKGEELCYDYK
Sequence of UniProt Q9UBL3 (Q9UBL3 380-598): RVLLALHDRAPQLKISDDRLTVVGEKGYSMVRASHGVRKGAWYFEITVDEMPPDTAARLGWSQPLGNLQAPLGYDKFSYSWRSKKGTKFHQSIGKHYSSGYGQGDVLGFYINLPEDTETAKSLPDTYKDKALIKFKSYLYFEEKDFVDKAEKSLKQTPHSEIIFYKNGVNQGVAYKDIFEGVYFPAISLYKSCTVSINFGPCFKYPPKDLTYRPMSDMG

fold increase in binding against Ash2L/RbBP5 [1]: 5 fold
Molecule: Ash2L/RbBP5^phos heterodimer (from UniProt Q9UBL3 1-628; Q15291 1-538) (complex)

fold change (Ash2L SPRY domain [2]): stronger
Molecule: RbBP5 344-357 (from UniProt Q15291) pS350 RbBP5 344-357 peptide

fold higher affinity against the unmodified peptide (Ash2L SPRY domain [3]): 15 fold
Molecule: EYEERE[pS]EFDIEDE [phosphorylated peptide RbBP5 344-357 (phospho-S350), Q15291 344-357]
